Laboratory results published in US8785135B2, “Mutant G-protein coupled receptors and methods for selecting them” (Heptares Therapeutics Limited, priority 2007, dated 2014).
Where a chain is given by its changes, count along the chain named. Names may count otherwise.

B1: A203L: A2aR point mutant (protein, UniProt P29274 1-412, looked up, variant A203L)
Adenosine receptor A2a: MPIMGSSVYITVELAIAVLAILGNVLVCWAVWLNSNLQNVTNYFVVSLAAADIAVGVLAIPFAITISTGFCAACHGCLFIACFVLVLTQSSIFSLLAIAIDRYIAIRIPLRYNGLVTGTRAKGIIAICWVLSFAIGLTPMLGWNNCGQPKEGKNHSQGCGEGQVACLFEDVVPMNYMVYFNFFACVLVPLLLMLGVYLRIFLLARRQLKQMESQPLPGERARSTLQKEVHAAKSLAIIVGLFALCWLPLHIINCFTFFCPDCSHAPLWLMYLAIVLSHTNSVVNPFIYAYRIREFRQTFRKIIRSHVLRQQEPFKAAGTSARVLAAHGSDGEQVSLRLNGHPPGVWANGSAPHPERRPNGYALGLVSGGSAQESQGNTGLPDVELLSHELKGVCPEPPGLDDPLAQDGAGVS
B2: S263A: A2aR point mutant (protein, UniProt P29274 1-412, looked up, variant S263A)
Adenosine receptor A2a: B1 Adenosine receptor A2a with L203A, S263A
B3: S223A: A2aR point mutant (protein, UniProt P29274 1-412, looked up, variant S223A)
Adenosine receptor A2a: B1 Adenosine receptor A2a with L203A, S223A
B4: E219A: A2aR point mutant (protein, UniProt P29274 1-412, looked up, variant E219A)
Adenosine receptor A2a: B1 Adenosine receptor A2a with L203A, E219A
B5: L267A: A2aR point mutant (protein, UniProt P29274 1-412, looked up, variant L267A)
Adenosine receptor A2a: B1 Adenosine receptor A2a with L203A, L267A
B6: P260A: A2aR point mutant (protein, UniProt P29274 1-412, looked up, variant P260A)
Adenosine receptor A2a: B1 Adenosine receptor A2a with L203A, P260A
B7: Q210A: A2aR point mutant (protein, UniProt P29274 1-412, looked up, variant Q210A)
Adenosine receptor A2a: B1 Adenosine receptor A2a with L203A, Q210A
B8: L272A: A2aR point mutant (protein, UniProt P29274 1-412, looked up, variant L272A)
Adenosine receptor A2a: B1 Adenosine receptor A2a with L203A, L272A
B9: L208A: A2aR point mutant (protein, UniProt P29274 1-412, looked up, variant L208A)
Adenosine receptor A2a: B1 Adenosine receptor A2a with L203A, L208A
B10: L241A: A2aR point mutant (protein, UniProt P29274 1-412, looked up, variant L241A)
Adenosine receptor A2a: B1 Adenosine receptor A2a with L203A, L241A
B11: R220A: A2aR point mutant (protein, UniProt P29274 1-412, looked up, variant R220A)
Adenosine receptor A2a: B1 Adenosine receptor A2a with L203A, R220A
B12: K227A: A2aR point mutant (protein, UniProt P29274 1-412, looked up, variant K227A)
Adenosine receptor A2a: B1 Adenosine receptor A2a with L203A, K227A
B13: T224A: A2aR point mutant (protein, UniProt P29274 1-412, looked up, variant T224A)
Adenosine receptor A2a: B1 Adenosine receptor A2a with L203A, T224A
B14: S213A: A2aR point mutant (protein, UniProt P29274 1-412, looked up, variant S213A)
Adenosine receptor A2a: B1 Adenosine receptor A2a with L203A, S213A
B15: Q226A: A2aR point mutant (protein, UniProt P29274 1-412, looked up, variant Q226A)
Adenosine receptor A2a: B1 Adenosine receptor A2a with L203A, Q226A
B16: H230A: A2aR point mutant (protein, UniProt P29274 1-412, looked up, variant H230A)
Adenosine receptor A2a: B1 Adenosine receptor A2a with L203A, H230A
B17: L310A: NTR point mutant (protein, UniProt P20789 1-424, looked up, variant L310A)
Neurotensin receptor type 1: MHLNSSVPQGTPGEPDAQPFSGPQSEMEATFLALSLSNGSGNTSESDTAGPNSDLDVNTDIYSKVLVTAIYLALFVVGTVGNSVTAFTLARKKSLQSLQSTVHYHLGSLALSDLLILLLAMPVELYNFIWVHHPWAFGDAGCRGYYFLRDACTYATALNVASLSVERYLAICHPFKAKTLMSRSRTKKFISAIWLASALLAIPMLFTMGLQNRSGDGTHPGGLVCTPIVDTATVKVVIQVNTFMSFLFPMLVISILNTVIANKLTVMVHQAAEQGRVCTVGTHNGLEHSTFNMTIEPGRVQALRHGVLVARAVVIAFVVCWLPYHVRRLMFCYISDEQWTTFLFDFYHYFYMLTNALFYVSSAINPILYNLVSANFRQVFLSTLACLCPGWRHRRKKRPTFSRKPNSMSSNHAFSTSATRETLY
B18: R395A: NTR point mutant (protein, UniProt P20789 1-424, looked up, variant R395A)
Neurotensin receptor type 1: B17 Neurotensin receptor type 1 with A310L, R395A
B19: F342A: NTR point mutant (protein, UniProt P20789 1-424, looked up, variant F342A)
Neurotensin receptor type 1: B17 Neurotensin receptor type 1 with A310L, F342A
B20: G390A: NTR point mutant (protein, UniProt P20789 1-424, looked up, variant G390A)
Neurotensin receptor type 1: B17 Neurotensin receptor type 1 with A310L, G390A
B21: S373A: NTR point mutant (protein, UniProt P20789 1-424, looked up, variant S373A)
Neurotensin receptor type 1: B17 Neurotensin receptor type 1 with A310L, S373A
B22: N370A: NTR point mutant (protein, UniProt P20789 1-424, looked up, variant N370A)
Neurotensin receptor type 1: B17 Neurotensin receptor type 1 with A310L, N370A
B23: Y349A: NTR point mutant (protein, UniProt P20789 1-424, looked up, variant Y349A)
Neurotensin receptor type 1: B17 Neurotensin receptor type 1 with A310L, Y349A
B24: V313A: NTR point mutant (protein, UniProt P20789 1-424, looked up, variant V313A)
Neurotensin receptor type 1: B17 Neurotensin receptor type 1 with A310L, V313A
B25: P389A: NTR point mutant (protein, UniProt P20789 1-424, looked up, variant P389A)
Neurotensin receptor type 1: B17 Neurotensin receptor type 1 with A310L, P389A
B26: F380A: NTR point mutant (protein, UniProt P20789 1-424, looked up, variant F380A)
Neurotensin receptor type 1: B17 Neurotensin receptor type 1 with A310L, F380A
B27: D345A: NTR point mutant (protein, UniProt P20789 1-424, looked up, variant D345A)
Neurotensin receptor type 1: B17 Neurotensin receptor type 1 with A310L, D345A
B28: A385L: NTR point mutant (protein, UniProt P20789 1-424, looked up, variant A385L)
Neurotensin receptor type 1: B17 Neurotensin receptor type 1 with A310L, A385L
B29: V360A: NTR point mutant (protein, UniProt P20789 1-424, looked up, variant V360A)
Neurotensin receptor type 1: B17 Neurotensin receptor type 1 with A310L, V360A
B30: A86L: NTR point mutant (protein, UniProt P20789 1-424, looked up, variant A86L)
Neurotensin receptor type 1: B17 Neurotensin receptor type 1 with A86L, A310L

Columns and labels:
[1] = Thermostability of A2aR and mutants (ligand binding after or during heating); format: physicochemical; settings: Ligand(−) format, binding after the heating step
Excerpt: (§1) FIG. 12 Flow chart showing the two different assay formats of ligand (+) and ligand (−) used to determine receptor thermostability.
• 1. 315 site-directed mutants made between residues 2-316 of A2aR. • 2. All of these mutants have been assayed for thermostability using an assay measuring agonist and antagonist binding after the heating step (Ligand(−) format as described in FIG. 12). • a. […] Mutations have been combined to generate mutants in a putative antagonist conformation. Wildtype A2aR has a Tm of 31° C. with ZM241385 bound. • a. Rant17 A54L+K122A+L235A Tm 48° C. (ZM241385 bound) • b. Rant19 A54L, T88A, V239A+A204L Tm 47° C. (ZM241385 bound) • c. Rant21 A54L, T88A, V239A+K122A Tm 49° C. (ZM241385 bound) • 4. Mutations from the agonist screen have been combined, but have led to only a very low level of improvement in Tm of +2° C.

[2] = Thermostability of NTR and mutants (3H-neurotensin binding); format: physicochemical; settings: for thermostability, heated in the presence of 3H-neurotensin: Ligand(+) format; for thermostability, 3H-neurotensin (agonist) binding after the heating step: heated in the absence of the agonist
Description: as §1
• 1. 340 site-directed mutants have been made between residues 61-400 of NTR. • 2. Initially, all of these mutants were assayed for thermostability using an assay measuring ^3H-neurotensin (agonist) binding after the heating step. […] Mutants tested for thermostability by heating in the absence of the agonist were re-tested using a slightly different assay where the mutants were heated in the presence of ^3H-neurotensin (Ligand(+) format in FIG. 12). […] All of these also have increased thermostability. • 5. Preferred combinations are • a. Nag7m F358A+A86L+I260A+F342A Tm 51° C. (neurotensin bound) • b. Nag7n F358A+H103A+I260A+F342A Tm 51° C. (neurotensin bound) • Wildtype NTR has a Tm of 35° C. with neurotensin bound.

Row | Molecule | thermostability measured with 3H-NECA (agonist) [1] | thermostability, heated in the presence of 3H-neurotensin [2] | other results
1 | B1 | improved thermostability |  | thermostability assayed with 3H-ZM241385 (antagonist) [1]: improved thermostability
2 | B2 | improved thermostability |  | 
3 | B3 | improved thermostability |  | 
4 | B4 | improved thermostability |  | 
5 | B5 | improved thermostability |  | 
6 | B6 | improved thermostability |  | 
7 | B7 | improved thermostability |  | 
8 | B8 | improved thermostability |  | 
9 | B9 | improved thermostability |  | 
10 | B10 | improved thermostability |  | 
11 | B11 | improved thermostability |  | 
12 | B12 | improved thermostability |  | 
13 | B13 | improved thermostability |  | 
14 | B14 | improved thermostability |  | 
15 | B15 | improved thermostability |  | 
16 | B16 | improved thermostability |  | 
17 | B17 |  | improved thermostability | 
18 | B18 |  | improved thermostability | 
19 | B19 |  | improved thermostability | 
20 | B20 |  | improved thermostability | 
21 | B21 |  | improved thermostability | 
22 | B22 |  | improved thermostability | 
23 | B23 |  |  | thermostability, 3H-neurotensin (agonist) binding after the heating step [2]: small but significant increase in thermostability
24 | B24 |  | improved thermostability | 
25 | B25 |  | improved thermostability | 
26 | B26 |  | improved thermostability | 
27 | B27 |  |  | thermostability, 3H-neurotensin (agonist) binding after the heating step [2]: small but significant increase in thermostability
28 | B28 |  | improved thermostability | thermostability, 3H-neurotensin (agonist) binding after the heating step [2]: small but significant increase in thermostability
29 | B29 |  | improved thermostability | 
30 | B30 |  | improved thermostability | thermostability, 3H-neurotensin (agonist) binding after the heating step [2]: small but significant increase in thermostability
